Experimental data taken from the supplement of paper PMC9112550, “Optimization of the antimicrobial peptide Bac7 by deep mutational scanning” (BMC Biology, 2022).

System: Escherichia coli TOP10
Test: shrunken log2 fold change of peptide-encoding DNA abundance (4.5 h post-induction vs induction); higher = less antimicrobial activity (less host growth inhibition)
Conditions: time post-induction: 4.5 h; library: site-saturation at positions 5, 18, 19, 20
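Further: peptides expressed intracellularly from a pBAD plasmid library in pooled LB shake-flask culture, induced with 0.3% L-arabinose, DNA abundance read by NGS, three biological replicates, DESeq2 with apeglm shrinkage.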

Sequence	shrunken log2 fold change
RRIRQRPPRLPRPRPRPGGWPRP	0.45
RRIRVRPPRLPRPRPRPHHRPRP	3.34
RRIRRRPPRLPRPRPRPSLSPRP	2.85
RRIRIRPPRLPRPRPRPDDKPRP	-0.266
RRIRSRPPRLPRPRPRPVFNPRP	-0.709
RRIRYRPPRLPRPRPRPFMWPRP	-0.307
RRIRVRPPRLPRPRPRPPYPPRP	0.0226
RRIRVRPPRLPRPRPRPKNGPRP	-0.129
RRIRRRPPRLPRPRPRPKIFPRP	0.0586
RRIRCRPPRLPRPRPRPWRRPRP	0.0523
RRIRERPPRLPRPRPRPLDDPRP	-0.234
RRIRMRPPRLPRPRPRPDVDPRP	0.104
RRIRQRPPRLPRPRPRPWPYPRP	0.0155
RRIRNRPPRLPRPRPRPGFNPRP	-0.207
RRIRWRPPRLPRPRPRPVQNPRP	0.316
RRIRLRPPRLPRPRPRPQKSPRP	-0.139
RRIRGRPPRLPRPRPRPPEYPRP	0.448
RRIRNRPPRLPRPRPRPGMFPRP	-0.252
RRIRWRPPRLPRPRPRPNVMPRP	-0.00962
RRIRARPPRLPRPRPRPLTRPRP	0.284
RRIRHRPPRLPRPRPRPPEEPRP	0.791
RRIRYRPPRLPRPRPRPAKCPRP	-0.153
RRIRERPPRLPRPRPRPMSKPRP	-0.439
RRIRGRPPRLPRPRPRPCIIPRP	0.191
RRIRHRPPRLPRPRPRPSPPPRP	-0.0717

Sequence	shrunken log2 fold change
RRIRPRPPRLPRPRPRPNWYPRP	-0.338
RRIRSRPPRLPRPRPRPLDYPRP	-0.194
RRIRDRPPRLPRPRPRPSWCPRP	-0.0805
RRIRVRPPRLPRPRPRPFRWPRP	-0.0443
RRIRRRPPRLPRPRPRPVPYPRP	-0.195
RRIRTRPPRLPRPRPRPHADPRP	0.0427
RRIRQRPPRLPRPRPRPFHQPRP	-0.00804
RRIRQRPPRLPRPRPRPKWAPRP	-0.0411
RRIRHRPPRLPRPRPRPHASPRP	0.00288
RRIRERPPRLPRPRPRPFFAPRP	0.848
RRIRKRPPRLPRPRPRPSQTPRP	0.026
RRIRFRPPRLPRPRPRPCEMPRP	0.0297
RRIRKRPPRLPRPRPRPYKRPRP	-0.338
RRIRWRPPRLPRPRPRPLEVPRP	-0.0802
RRIRARPPRLPRPRPRPTSKPRP	0.236
RRIRIRPPRLPRPRPRPILTPRP	-0.854
RRIRHRPPRLPRPRPRPLSGPRP	-0.35
RRIRKRPPRLPRPRPRPFVSPRP	-0.176
RRIRKRPPRLPRPRPRPNEQPRP	0.11
RRIRIRPPRLPRPRPRPYYNPRP	-0.679
RRIRLRPPRLPRPRPRPKCMPRP	-0.152
RRIRKRPPRLPRPRPRPFGPPRP	0.325
RRIRVRPPRLPRPRPRPDYGPRP	-0.133
RRIRVRPPRLPRPRPRPSEFPRP	-0.233
RRIRSRPPRLPRPRPRPMRMPRP	0.323

Sequence	shrunken log2 fold change
RRIRIRPPRLPRPRPRPWLVPRP	-0.038
RRIRLRPPRLPRPRPRPEEVPRP	-0.00242
RRIRCRPPRLPRPRPRPRLVPRP	0.0587
RRIRWRPPRLPRPRPRPNETPRP	0.0101
RRIRKRPPRLPRPRPRPNEKPRP	0.218
RRIRVRPPRLPRPRPRPKQGPRP	0.0222
RRIRARPPRLPRPRPRPFYDPRP	0.314
RRIRWRPPRLPRPRPRPQYHPRP	-0.505
RRIRKRPPRLPRPRPRPGRYPRP	0.426
RRIRLRPPRLPRPRPRPCEMPRP	-0.0934
RRIRARPPRLPRPRPRPLYKPRP	-0.362
RRIRVRPPRLPRPRPRPWKPPRP	0.0596
RRIRLRPPRLPRPRPRPTFRPRP	0.0593
RRIRFRPPRLPRPRPRPMANPRP	-0.104
RRIRHRPPRLPRPRPRPEDPPRP	0.0512
RRIRYRPPRLPRPRPRPRYIPRP	-0.397
RRIRYRPPRLPRPRPRPQCNPRP	-0.269
RRIRRRPPRLPRPRPRPVMIPRP	0.224
RRIRHRPPRLPRPRPRPEDYPRP	0.0112
RRIRMRPPRLPRPRPRPTWTPRP	0.667
RRIRHRPPRLPRPRPRPEVEPRP	-0.00133
RRIRYRPPRLPRPRPRPSSPPRP	-0.631
RRIRARPPRLPRPRPRPPTSPRP	0.525
RRIRTRPPRLPRPRPRPICEPRP	0.0143
RRIRYRPPRLPRPRPRPFARPRP	-0.084

Sequence	shrunken log2 fold change
RRIRARPPRLPRPRPRPVHRPRP	-0.0852
RRIRARPPRLPRPRPRPDPGPRP	0.29
RRIRYRPPRLPRPRPRPPDSPRP	-0.0664
RRIRERPPRLPRPRPRPIHDPRP	0.0116
RRIRWRPPRLPRPRPRPQNFPRP	0.0414
RRIRARPPRLPRPRPRPVLNPRP	-0.0316
RRIRKRPPRLPRPRPRPTAAPRP	0.757
RRIRERPPRLPRPRPRPIVNPRP	-0.0349
RRIRQRPPRLPRPRPRPGAFPRP	-0.158
RRIRDRPPRLPRPRPRPPWVPRP	-0.0472
RRIRARPPRLPRPRPRPCLMPRP	-0.0504
RRIRRRPPRLPRPRPRPIRMPRP	0.302
RRIRIRPPRLPRPRPRPKKCPRP	-0.0871
RRIRLRPPRLPRPRPRPGYMPRP	-0.459
RRIRSRPPRLPRPRPRPMMNPRP	-0.0187
RRIRTRPPRLPRPRPRPGTCPRP	-0.00643
RRIRQRPPRLPRPRPRPYNGPRP	-0.631
RRIRPRPPRLPRPRPRPPTAPRP	0.189
RRIRYRPPRLPRPRPRPPHFPRP	-0.139
RRIRFRPPRLPRPRPRPNHNPRP	-0.711
RRIRDRPPRLPRPRPRPKFAPRP	-0.0673
RRIRMRPPRLPRPRPRPIEPPRP	0.0361
RRIRRRPPRLPRPRPRPVFTPRP	0.188
RRIRCRPPRLPRPRPRPWTPPRP	-0.131
RRIRGRPPRLPRPRPRPHLHPRP	0.227

Sequence	shrunken log2 fold change
RRIRNRPPRLPRPRPRPRCQPRP	0.297
RRIRERPPRLPRPRPRPGQLPRP	-0.131
RRIRTRPPRLPRPRPRPYDGPRP	-0.0303
RRIRPRPPRLPRPRPRPNISPRP	-0.208
RRIRFRPPRLPRPRPRPARDPRP	0.732
RRIRWRPPRLPRPRPRPRGYPRP	0.209
RRIRCRPPRLPRPRPRPVWPPRP	0.239
RRIRHRPPRLPRPRPRPYKGPRP	-0.33
RRIRGRPPRLPRPRPRPMNNPRP	0.18
RRIRQRPPRLPRPRPRPWVMPRP	-0.0363
RRIRERPPRLPRPRPRPHHNPRP	-0.817
RRIRARPPRLPRPRPRPSMYPRP	0.0294
RRIRCRPPRLPRPRPRPEPDPRP	0.307
RRIRWRPPRLPRPRPRPFYNPRP	-0.242
RRIRGRPPRLPRPRPRPSPLPRP	0.539
RRIRARPPRLPRPRPRPCYRPRP	-0.141
RRIRFRPPRLPRPRPRPFIEPRP	-0.894
RRIRRRPPRLPRPRPRPHSKPRP	-0.198
RRIRQRPPRLPRPRPRPECPPRP	0.184
RRIRRRPPRLPRPRPRPQFFPRP	-0.259
RRIRFRPPRLPRPRPRPSDDPRP	-0.106
RRIRDRPPRLPRPRPRPWWSPRP	-0.0691
RRIRIRPPRLPRPRPRPVFGPRP	-0.0092
RRIRVRPPRLPRPRPRPIWHPRP	-0.164
RRIRFRPPRLPRPRPRPIGYPRP	-0.363
